Article PMC11362571, “Multistage protective anti-CelTOS monoclonal antibodies with cross-species sterile protection against malaria” (Nature Communications, 2024)
Several values for one entry are separate records, joined by “and”; a condition that tells them apart may be missing. Equal entries are not always repeated.

Tests used:
[1] = biological target: T1, P. vivax CelTOS (cell-traversal protein for ookinetes and sporozoites), Sal-1, residues L36-D196 (Plasmodium vivax Sal-1); assay: BLI; mAb immobilised on anti-mouse IgG Fc capture (AMC) biosensors, 25 °C; CelTOS serially diluted in HBS-EP+ buffer as analyte; OctetRed96e; global fit, 1:1 model; each biological replicate the average of three repeats; conditions: both partners purified
T1 construct: PvCelTOS, P. vivax Sal-1, PVX_123510, residues L36-D196; also called PvCelTOS; source: E. coli BL21(DE3), pET28, purified (nickel resin, Superdex 200 increase)
T1 chain: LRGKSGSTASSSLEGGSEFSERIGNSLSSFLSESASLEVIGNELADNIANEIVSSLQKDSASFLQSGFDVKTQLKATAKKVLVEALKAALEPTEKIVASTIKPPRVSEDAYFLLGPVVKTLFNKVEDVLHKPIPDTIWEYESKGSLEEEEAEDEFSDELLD

[2] = biological target: T2, P. falciparum CelTOS (cell-traversal protein for ookinetes and sporozoites), 3D7, residues F25-D182 (Plasmodium falciparum 3D7); assay: as above; conditions: both partners purified
T2 construct: PfCelTOS, P. falciparum 3D7, PF3D7_1216600, residues F25-D182; also called PfCelTOS; source: E. coli BL21(DE3), pET28, purified (nickel resin, Superdex 200 increase)
T2 chain: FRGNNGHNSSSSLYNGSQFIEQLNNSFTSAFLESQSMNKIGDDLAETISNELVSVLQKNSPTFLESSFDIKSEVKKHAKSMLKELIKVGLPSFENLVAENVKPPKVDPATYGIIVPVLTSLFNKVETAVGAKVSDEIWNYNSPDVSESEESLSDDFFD

[3] = biological target: T3, P. vivax CelTOS (Sal-1, PVX_123510, residue L36-D196) (P. vivax, UniProt A5JZX5); assay: BLI; mAb immobilised on anti-mouse IgG Fc capture (AMC) biosensors at 25 °C; CelTOS serially diluted in HBS-EP+ buffer; global fit, 1:1 model; conditions: both partners purified
T3 construct: Cell-traversal protein for ookinetes and sporozoites (CelTOS), P. vivax Sal-1, PVX_123510, residues L36-D196; also called PvCelTOS; cell-traversal protein for ookinetes and sporozoites; source: E. coli BL21(DE3), pET28, purified (Ni resin, Superdex 200 increase)

[4] = biological target: T4, P. falciparum CelTOS (3D7, PF3D7_1216600, residue F25-D182) (P. falciparum, UniProt Q8I5P1); assay: as above; conditions: both partners purified
T4 construct: Cell-traversal protein for ookinetes and sporozoites (CelTOS), P. falciparum 3D7, PF3D7_1216600, residues F25-D182; Only S60-S116 are ordered in PDB 8UKH; also called PfCelTOS; cell-traversal protein for ookinetes and sporozoites; source: E. coli BL21(DE3), pET28, purified (Ni resin, Superdex 200 increase)

[5] = biological target: the molecule itself; assay: crystal structure; PvCelTOS with 7g7 Fab at a 1:1 ratio, complex purified by SEC; crystals at 17 °C, 0.1 M sodium acetate pH 4.5, 15% PEG 4000; 3.2 Å
[6] = biological target: the molecule itself; assay: crystal structure; PfCelTOS with 4h12 Fab at a ratio of 1.5:1, complex purified by SEC; crystals at 18 °C, 0.2 M lithium acetate, 21% PEG 3350; 3.5 Å

Binder | Kd [1] | koff [1] | kon [1] | Kd [2] | koff [2] | kon [2] | Kd [3] [nM] | Kd [4] [nM] | also measured
anti-CelTOS monoclonal antibody 7g7 (mouse IgG1) (antibody, V domains shown, 7g7 heavy chain variable region; mouse IgG1 heavy chain constant region (IgG1 subclass by isotyping ELISA); 7g7 light chain variable region; light chain constant region; the light chain of the Fab is in PDB 8ULF; IgG1; raised in mice immunised with PvCelTOS; also called 7g7 mAb; 7g7 IgG; source: hybridoma culture, purified (Protein A resin)) VH: EIQLQQSGPELVKPGASVKVSCKASGYSFTDYNMYWVKQSHGKSLEWIGYIDPYNGGTRYNQKFRDKATLTVDKSSSTAFMHLNSLTSEDSAVYYCARGYYYGNPLHFDVWGAGTTVTVSS VL: QIVLTQSPAIMSASPGEKVTMTCSASSSVSYIHWYQQKSGTSPKRWIYDTSKLASGVPARFSGSGSGTSYSLTISSMEAEDAATYYCQQWISYPATFGAGTKLELK | 58.5 nM and 39.5 nM and 54.2 nM | 0.00309 s⁻¹ and 0.00368 s⁻¹ and 0.00227 s⁻¹ and 0.00332 s⁻¹ | 60200 M⁻¹ s⁻¹ and 62300 M⁻¹ s⁻¹ and 57000 M⁻¹ s⁻¹ and 61300 M⁻¹ s⁻¹ | 470 nM and 480 nM and 500 nM | 0.00279 s⁻¹ and 0.00293 s⁻¹ and 0.00281 s⁻¹ and 0.00284 s⁻¹ | 5900 M⁻¹ s⁻¹ and 6000 M⁻¹ s⁻¹ and 5600 M⁻¹ s⁻¹ and 5800 M⁻¹ s⁻¹ | – | – | –
monoclonal antibody 7g7 (IgG) (antibody, V domains shown, the Fab part of the heavy chain is in PDB 8ULF; mouse IgG1; the light chain is in PDB 8ULF; IgG1; raised by immunising mice with PvCelTOS; also called 7g7 mAb; source: mouse hybridoma supernatant, purified (protein A); copies: 2 + 2) VH: EIQLQQSGPELVKPGASVKVSCKASGYSFTDYNMYWVKQSHGKSLEWIGYIDPYNGGTRYNQKFRDKATLTVDKSSSTAFMHLNSLTSEDSAVYYCARGYYYGNPLHFDVWGAGTTVTVSS VL: QIVLTQSPAIMSASPGEKVTMTCSASSSVSYIHWYQQKSGTSPKRWIYDTSKLASGVPARFSGSGSGTSYSLTISSMEAEDAATYYCQQWISYPATFGAGTKLELK | – | – | – | – | – | – | 50.7 | 480 | –
P. vivax CelTOS (Sal-1, PVX_123510, residue L36-D196) (natural protein, UniProt A5JZX5 36-196, looked up, Cell-traversal protein for ookinetes and sporozoites (CelTOS), P. vivax Sal-1, PVX_123510, residues L36-D196; also called PvCelTOS; cell-traversal protein for ookinetes and sporozoites; source: E. coli BL21(DE3), pET28, purified (Ni resin, Superdex 200 increase)) LRGKSGSTASSSLEGGSEFSERIGNSLSSFLSESASLEVIGNELADNIANEIVSSLQKDSASFLQSGFDVKTQLKATAKKVLVEALKAALEPTEKIVASTIKPPRVSEDAYFLLGPVVKTLFNKVEDVLHKPIPDTIWEYESKGSLEEEEAEDEFSDELLD | – | – | – | – | – | – | – | – | stoichiometry N [5]: 2
P. falciparum CelTOS (3D7, PF3D7_1216600, residue F25-D182) (natural protein, UniProt Q8I5P1 25-182, looked up, Cell-traversal protein for ookinetes and sporozoites (CelTOS), P. falciparum 3D7, PF3D7_1216600, residues F25-D182; Only S60-S116 are ordered in PDB 8UKH; also called PfCelTOS; cell-traversal protein for ookinetes and sporozoites; source: E. coli BL21(DE3), pET28, purified (Ni resin, Superdex 200 increase)) FRGNNGHNSSSSLYNGSQFIEQLNNSFTSAFLESQSMNKIGDDLAETISNELVSVLQKNSPTFLESSFDIKSEVKKHAKSMLKELIKVGLPSFENLVAENVKPPKVDPATYGIIVPVLTSLFNKVETAVGAKVSDEIWNYNSPDVSESEESLSDDFFD | – | – | – | – | – | – | – | – | stoichiometry N [6]: 2
anti-CelTOS monoclonal antibody 4h12 (mouse IgG1) (antibody, V domains shown, 4h12 heavy chain variable region; mouse IgG1 heavy chain constant region (IgG1 subclass by isotyping ELISA); 4h12 light chain variable region; light chain constant region; the light chain of the Fab is in PDB 8UKH; IgG1; raised in mice immunised with PfCelTOS; also called 4h12 mAb; 4h12 IgG; source: hybridoma culture, purified (Protein A resin)) VH: QVQLQQSGPELVKPGASVKISCKASGYALSSSWLNWVKQRPGQGLEWIGRIFPGDGDTNYNGKFKGKATLTADKSSSTAYLQLSSLTSVDSAVYFCARGGTVVFDYWGQGTTLTVSS VL: DIVMTQSHKFMSTSVGDRVNITCKASQDVGIAVAWYQQRPGQSPKLLIYWASKRHTGVHDRFTGTGSGTDFTLTISTVQSEDLADYFCQQYSNSLTFGAGTTLELS | 41600 nM and 57500 nM and 56300 nM | 0.0411 s⁻¹ and 0.0511 s⁻¹ and 0.0549 s⁻¹ and 0.0491 s⁻¹ | 1100 M⁻¹ s⁻¹ and 900 M⁻¹ s⁻¹ and 1000 M⁻¹ s⁻¹ | 65.9 nM and 68 nM and 62.3 nM | 0.00569 s⁻¹ and 0.00609 s⁻¹ and 0.00521 s⁻¹ and 0.00566 s⁻¹ | 86300 M⁻¹ s⁻¹ and 89700 M⁻¹ s⁻¹ and 84700 M⁻¹ s⁻¹ and 86900 M⁻¹ s⁻¹ | – | – | –
monoclonal antibody 4h12 (IgG) (antibody, V domains shown, the Fab part of the heavy chain is in PDB 8UKH; mouse IgG1; the light chain is in PDB 8UKH; IgG1; raised by immunising mice with PfCelTOS; also called 4h12 mAb; source: mouse hybridoma supernatant, purified (protein A); copies: 2 + 2) VH: QVQLQQSGPELVKPGASVKISCKASGYALSSSWLNWVKQRPGQGLEWIGRIFPGDGDTNYNGKFKGKATLTADKSSSTAYLQLSSLTSVDSAVYFCARGGTVVFDYWGQGTTLTVSS VL: DIVMTQSHKFMSTSVGDRVNITCKASQDVGIAVAWYQQRPGQSPKLLIYWASKRHTGVHDRFTGTGSGTDFTLTISTVQSEDLADYFCQQYSNSLTFGAGTTLELS | – | – | – | – | – | – | 51800 | 65.4 | –
